Changes are numbered by the printed parent chain.
B1: mh4A-2F7 VH/VL2 (antibody, V domains shown)
VH: QVTLKESGPGILKPSQTLSLTCSFSGFSLSTSGMGVDWIRQPSGKGLEWLAHIWWDDDKYYNPSLKSQLTISKDTSRNQVFLKITSVDTADTATYYCARSYGYDMDYYAMDYWGQGTSVTVSS
VL: DIQMTQSPSSLSASLGERVSLTCRASQEISGYLSWLQQKPDGTIKRLIYAASTLESGVPKRFSGSRSGSDYSLTISSLESEDFADYYCLQYASYPPWTFGGGTKLEIK
B2: mh4A-2F7 VH/VL3 (antibody, V domains shown)
VH: B1 VH
VL: B1 VL with E55D, S56A
B3: Hu5A-5E11 VH1/VL2 (antibody, V domains shown)
VH: QVQLVQSGAEVKKPGSSVKVSCKASGYAFSDYWMNWVRQAPGQGLEWIGQIYPGSGDTNYNAKFKGKGTITADKSTSTAYMELSSLRSEDTAVYYCARERDYDVAMDYWGQGTTVTVSS
VL: DIQMTQSPSSLSASVGDRVTITCKASQDINKYIAWFQQKPGKAPKLVIHYTSILQPGVPSRFSGVGSGTDYTFTISSLQPEDIATYYCLQYDNLPWTFGGGTKVEIK
notes: Humanized antibody
B4: Hu5A-5E11 VH2/VL1 (antibody, V domains shown)
VH: B3 VH with I70L
VL: B3 VL with V65S
notes: Humanized antibody
B5: Hu5A-5E11 VH2/VL2 (antibody, V domains shown)
VH: B3 VH with I70L
VL: B3 VL
notes: Humanized antibody
B6: mh5A-5E11 VH1/VL (antibody, V domains shown)
VH: QVQLQQSGAELVRPGSSVKISCKASGYAFSDYWMNWVKQRPGQGLEWIGQIYPGSGDTNYNGKFKGKGTLTADKSSSTAYMQLNSLTSEDSAVYFCARERDYDVAMDYWGQGTSVTVSS
VL: DIQMTQSPSSLSASLGGKVTITCKASQDINKYIAWFQHKPGKGPRLVIHYTSILQPGIPSRFSGVGSGRDYSFSIRNLEPEDIATYYCLQYDNLPWTFGGGTKLEIK
B7: mh5A-5E11 VH5/VL (antibody, V domains shown)
VH: B6 VH with S55D, G62A
VL: B6 VL
B8: mh5A-5E11 VH6/VL (antibody, V domains shown)
VH: B6 VH with N61S
VL: B6 VL
B9: mh5A-5E11 VH10/VL (antibody, V domains shown)
VH: B6 VH with S55D, G56A, N61S
VL: B6 VL
B10: mh5A-5E11 VH2/VL (antibody, V domains shown)
VH: B6 VH with S55E
VL: B6 VL
B11: mh5A-5E11 VH8/VL (antibody, V domains shown)
VH: B6 VH with S55E, N61S
VL: B6 VL
B12: mh5A-5E11 VH9/VL (antibody, V domains shown)
VH: B6 VH with S55E, G62A
VL: B6 VL
B13: mh5A-5E11 VH4/VL (antibody, V domains shown)
VH: B6 VH with S55D, N61S
VL: B6 VL
B14: mh5A-5E11 VH11/VL (antibody, V domains shown)
VH: B6 VH with S55D, G56A, G62A
VL: B6 VL
B15: mh5A-5E11 VH3/VL (antibody, V domains shown)
VH: B6 VH with S55D, G56A
VL: B6 VL
B16: mh5A-5E11_VH7/VL (antibody, V domains shown)
VH: B6 VH with G62A
VL: B6 VL
B17: Hu1A-7H10 VH1/VL1 (antibody, V domains shown)
VH: QVTLKESGPVLVKPTETLTLTCTVSGFSSTTYGVHWVRQPPGKALEWLGVIWAGGSTNYNAALMSRLTISKDTSKSQVVLTMTNMDPVDTATYYCATQYHYPFAYWGQGTLVTVSS
VL: DIQMTQSPSSLSASVGDRVTITCKASENVGIYVSWYQQKPGKAPKLMIYGASNRNTGVPSRFSGSGSGTDFTLTISSLQPEDFATYYCGQSYSYPLTFGGGTKVEIK
B18: Hu1A-7H10 VH2/VL1 (antibody, V domains shown)
VH: B17 VH with T73N
VL: B17 VL
notes: Humanized antibody
B19: Hu1A-7H10 VH1/VL2 (antibody, V domains shown)
VH: B17 VH
VL: B17 VL with G68A
notes: Humanized antibody
B20: Hu1A-7H10 VH2/VL2 (antibody, V domains shown)
VH: B17 VH with T73N
VL: B17 VL with G68A
notes: Humanized antibody
B21: mh1A-7H10_VH1/VL (antibody, V domains shown)
VH: QVQLKESGPVLVAPSQSLSITCSVSGFSSTTYGVHWVRQPPGQGLEWLGVIWAGGSTNYNAALMSRLSISKDNSKSQVFLKMNSLQTDDTAMYYCATQYHYPFAYWGQGTLVTVSA
VL: NIVMTQSPKSMSMSVGERVTLSCKASENVGIYVSWYQQKPEQSPKLMIYGASNRNTGVPDRFTGSGSATDFTLTISSVQAEDLADYYCGQSYSYPLTFGAGTKLELK
B22: 028-8-12 VH1/VL (antibody, V domains shown)
VH: EVQLLESGGGLVQPGGSLRLSCAASGFTFSELSMSWVRQAPGKGLEWVSAISGSGGSTYYASSVKGRFTISRDNSKNTLYLQMNSLRAEDTAVYYCAREGGRLEPYYYYYAMDVWGQGTPVTVSS
VL: DIQMTQSPSSLSASVGDRVTITCRASQSISDNLHWYQQKPGKAPKLLIYDASNLESGVPSRFSGSGSGTDFTLTINSLQPEDFATYYCQQYYSTPLTFGQGTKLEIK
notes: Amino acid-modified human antibody
B23: 028-8-12 VH2/VL (antibody, V domains shown)
VH: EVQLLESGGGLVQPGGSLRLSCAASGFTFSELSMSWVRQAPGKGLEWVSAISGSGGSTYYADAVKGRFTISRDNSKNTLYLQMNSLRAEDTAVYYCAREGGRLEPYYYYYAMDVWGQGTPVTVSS
VL: B22 VL
notes: as for B22
B24: 028-8-12 VH2/VL1 (antibody, V domains shown)
VH: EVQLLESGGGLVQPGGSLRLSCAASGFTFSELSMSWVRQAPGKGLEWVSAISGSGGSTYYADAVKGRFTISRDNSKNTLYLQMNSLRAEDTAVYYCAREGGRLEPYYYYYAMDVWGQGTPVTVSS
VL: B22 VL with N76S
notes: as for B22
B25: 028-8-12 VH/VL1 (antibody, V domains shown)
VH: B22 VH with S62D
VL: B22 VL with N76S
notes: as for B22

Columns and labels:
human CXCL1 protein [1] = target: T1, human CXCL1 protein (human, UniProt P09341 35-107); test: antigen-immobilized ELISA
T1 construct: also called HuCXCL1
T1 sequence: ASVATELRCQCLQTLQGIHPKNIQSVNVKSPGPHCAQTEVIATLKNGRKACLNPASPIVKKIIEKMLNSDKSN

human CXCL1 protein [2] = target: T1, human CXCL1 protein; test: antigen-immobilized ELISA, HuCXCL1 on the plate, absorbance (lower left panel)
human CXCL1 protein [3] = target: T1, human CXCL1 protein; test: antigen-immobilized ELISA, HuCXCL1 on the plate, absorbance (upper left panel)

Binder	binding result (human CXCL1 protein [1])	also measured
B1	binds	
B2	binds	
B3		EC50 (read off the curve) (human CXCL1 protein [2]): ~0.02 µg/mL
B4		EC50 (read off the curve) (human CXCL1 protein [2]): ~0.02 µg/mL
B5		EC50 (read off the curve) (human CXCL1 protein [2]): ~0.02 µg/mL
B6	binds	
B7	binds	
B8	binds	
B9	binds	
B10	binds	
B11	binds	
B12	binds	
B13	binds	
B14	binds	
B15	binds	
B16		EC50 (read off the curve) (human CXCL1 protein [2]): ~0.02 µg/mL
B17		EC50 (read off the curve) (human CXCL1 protein [3]): ~0.02 µg/mL
B18		EC50 (read off the curve) (human CXCL1 protein [3]): ~0.02 µg/mL
B19		EC50 (read off the curve) (human CXCL1 protein [3]): ~0.02 µg/mL
B20		EC50 (read off the curve) (human CXCL1 protein [3]): ~0.02 µg/mL
B21		EC50 (read off the curve) (human CXCL1 protein [3]): ~0.02 µg/mL
B22	binds	
B23	binds	
B24	binds	
B25	binds	

Reference: US20250154240A1 (CHIOME BIOSCIENCE, published 2025)
